This experiment has as its target T1, 6His-FIP5 (human, UniProt Q9BXF6 1-653).
T1 sequence (looked up): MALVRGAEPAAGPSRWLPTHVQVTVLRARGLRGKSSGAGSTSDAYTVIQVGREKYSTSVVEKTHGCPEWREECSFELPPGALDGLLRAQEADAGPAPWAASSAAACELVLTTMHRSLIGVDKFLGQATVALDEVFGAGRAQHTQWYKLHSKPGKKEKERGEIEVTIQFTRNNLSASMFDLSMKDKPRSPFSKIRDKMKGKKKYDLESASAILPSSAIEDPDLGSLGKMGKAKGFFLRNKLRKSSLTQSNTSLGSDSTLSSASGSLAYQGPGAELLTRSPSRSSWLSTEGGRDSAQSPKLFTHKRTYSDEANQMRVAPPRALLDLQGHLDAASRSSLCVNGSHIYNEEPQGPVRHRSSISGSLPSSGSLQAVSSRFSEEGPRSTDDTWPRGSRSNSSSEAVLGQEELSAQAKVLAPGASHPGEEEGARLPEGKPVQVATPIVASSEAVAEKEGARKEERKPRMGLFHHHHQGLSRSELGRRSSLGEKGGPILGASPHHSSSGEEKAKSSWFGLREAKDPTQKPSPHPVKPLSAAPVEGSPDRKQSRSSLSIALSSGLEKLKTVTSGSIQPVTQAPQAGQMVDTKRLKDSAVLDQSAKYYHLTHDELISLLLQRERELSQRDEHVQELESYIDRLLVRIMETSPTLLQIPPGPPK
Put plainly: ITC.

For orientation: Kd means a measure of binding affinity in units of concentration. Read a low Kd as a tighter complex.

B1: GST-SNX18 (natural protein, human, UniProt Q96RF0 1-628, looked up)
chain: MALRARALYDFRSENPGEISLREHEVLSLCSEQDIEGWLEGVNSRGDRGLFPASYVQVIRAPEPGPAGDGGPGAPARYANVPPGGFEPLPVAPPASFKPPPDAFQALLQPQQAPPPSTFQPPGAGFPYGGGALQPSPQQLYGGYQASQGSDDDWDDEWDDSSTVADEPGALGSGAYPDLDGSSSAGVGAAGRYRLSTRSDLSLGSRGGSVPPQHHPSGPKSSATVSRNLNRFSTFVKSGGEAFVLGEASGFVKDGDKLCVVLGPYGPEWQENPYPFQCTIDDPTKQTKFKGMKSYISYKLVPTHTQVPVHRRYKHFDWLYARLAEKFPVISVPHLPEKQATGRFEEDFISKRRKGLIWWMNHMASHPVLAQCDVFQHFLTCPSSTDEKAWKQGKRKAEKDEMVGANFFLTLSTPPAAALDLQEVESKIDGFKCFTKKMDDSALQLNHTANEFARKQVTGFKKEYQKVGQSFRGLSQAFELDQQAFSVGLNQAIAFTGDAYDAIGELFAEQPRQDLDPVMDLLALYQGHLANFPDIIHVQKGKAWPLEQVIWSVLCRLKGATLTAVPLWVSESYSTGEEASRDVDAWVFSLECKLDCSTGSFLLEYLALGNEYSFSKVQRVPLMTVLSF
Consider B1, for which binding was put at a Kd of 1560 nM.

Values taken from publication PMC3187708 (The Journal of Cell Biology, 2011).
